# Molecular target: T1, RNF31 PUB domain (Homo sapiens, UniProt Q96EP0)
# T1 construct: MBP-TEV (N, cleaved yes); made in house; host or cells: E. coli BL21 (DE3) pLysS
# T1 sequence (Q96EP0 1-179): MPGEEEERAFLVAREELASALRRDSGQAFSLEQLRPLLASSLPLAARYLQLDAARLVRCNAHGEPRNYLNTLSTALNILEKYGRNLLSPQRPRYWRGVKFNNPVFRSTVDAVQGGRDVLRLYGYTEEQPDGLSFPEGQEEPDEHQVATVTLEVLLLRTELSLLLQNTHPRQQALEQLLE
# Test: Phage Library Screening with NGS, RNF31 PUB domain
# Format: binding
# Conditions: for Phage library screen NGS readout, Target Concentration 10 / Phage library screen NGS readout, Target Concentration 30 / Phage library screen NGS readout, Target Concentration 100 / Phage library screen NGS readout, Target Concentration 300 / Phage library screen NGS readout, Target Concentration 1000: RNF31 PUB domain clusters C41-C45; for Phage library screen NGS readout, BLANK: clusters C41-C45
# [1] = target concentration 1000, first column
# [2] = target concentration 1000, second column
Sequence,"Phage library screen NGS readout, Target Concentration 10","Phage library screen NGS readout, Target Concentration 30","Phage library screen NGS readout, Target Concentration 100","Phage library screen NGS readout, Target Concentration 300","Phage library screen NGS readout, Target Concentration 1000 [1]","Phage library screen NGS readout, Target Concentration 1000 [2]","Phage library screen NGS readout, BLANK (column 1 of 5)","Phage library screen NGS readout, BLANK (column 2 of 5)","Phage library screen NGS readout, BLANK (column 3 of 5)","Phage library screen NGS readout, BLANK (column 4 of 5)","Phage library screen NGS readout, BLANK (column 5 of 5)"
DPAWWSCMYAAWTCDDT,1,10,0,7,14,15,0,2,2,1,1
DPAYSLCISAAVECTYY,0,1,0,2,6,7,0,0,0,0,0
DPAFMDCVFAAAVCATY,0,0,0,2,8,8,0,1,1,0,0
DPAYDYCLYAAQDCVWW,0,0,0,1,6,5,0,0,0,0,0
DPAYDWCMYAAHECVDQ,0,0,0,3,3,8,0,0,0,1,0

# Other lines, results leading:
"Phage library screen NGS readout, Target Concentration 10","Phage library screen NGS readout, Target Concentration 30","Phage library screen NGS readout, Target Concentration 100","Phage library screen NGS readout, Target Concentration 300","Phage library screen NGS readout, Target Concentration 1000 [1]","Phage library screen NGS readout, Target Concentration 1000 [2]","Phage library screen NGS readout, BLANK (column 1 of 5)","Phage library screen NGS readout, BLANK (column 2 of 5)","Phage library screen NGS readout, BLANK (column 3 of 5)","Phage library screen NGS readout, BLANK (column 4 of 5)","Phage library screen NGS readout, BLANK (column 5 of 5)",Sequence
2,0,1,8,46,29,0,1,0,0,1,DPAWDYCMYAAYDCNHS
0,0,0,4,14,8,0,2,0,0,0,DPAMQECMDAAIMCTYA
2,1,1,6,41,38,0,0,0,0,0,DPAYDWCMYAAYNCVED
